Data: the RNAGym collection of RNA variant scans (doi:10.1073/pnas.2313332121)

B1: TPR t1 (parent)
chain: GACCAAUCUGCCCUCAGAGCUCGAGAACAUCUUCGGAUGCAGAGGAGGCAGGCUUCGGUGGCGCGAUAGCGCCAACGUCCUCAACCUCCAAUGCAUCCCACCACAUGAUGAUGCCUGAAGAGCCUUGGUUUUUUG

Variants of: B1
Experiment: polymerase ribozyme fitness, log enrichment relative to wild type (log ratio); higher = more active; in vitro selection for triplet polymerase activity
Method in brief: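 To select mutant libraries of each subunit of a heterodimeric triplet polymerase ribozyme, built by PCR and transcribed, each was annealed with a biotinylated primer, partner subunit and triplets, then incubated frozen at −7 °C. Extended constructs were gel-excised, captured on streptavidin beads and amplified by RT-PCR, in one round carried out in triplicate. Illumina sequencing of input and output libraries kept genotypes with ≥10 input reads and ≥1 read per output. Fitness is the base-2 logarithm of genotype enrichment relative to wild-type enrichment, from inverse-variance-weighted replicate averages.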

In order of falling “polymerase ribozyme fitness (log ratio)” value:
1. C72U U78C A83U A90G A121G  1.89
2. C8U C11A C124U  1.17
3. C8G A37G G71A C123A U133G  1.08
4. C4G A121C  0.946
5. G47A G60A C124G  0.279
6. U7A C56U  0.211
7. G57U C82G  0.0757
8. C62U C115A  0.00277
9. C11G C40U  -0.213
10. C40U C53U C72A C97U  -0.251
11. G10A C40G  -0.282
12. G10U C80U  -0.415
13. U59C U87A  -0.642
14. C12U A46C C53G U106A  -0.663
15. A83C C94A  -0.753
16. U21A C80U  -0.894
17. C53A C82G A118G  -0.931
18. U54A C72G  -0.955
19. U9G A46C  -0.961
20. G60A G127A  -0.964
21. C20U C62U  -1.15
22. A75G G117A  -1.28
23. G47A A50G  -1.37
24. A50U U87G  -1.44
25. G57U C70U C89U  -1.44
26. G42U U55G U125A  -1.45
27. G63C A83U  -1.48
28. U78A C102A U112A  -1.54
29. U78A C89G  -1.56
30. C15U C64U  -1.59
31. C49G G77U U78A C85A  -1.63
32. C70G A118U  -1.64
33. A5U U21C C72G C97U  -1.7
34. U21A G63U  -1.92
35. U55C A83C U116C  -2.32
36. C8G C70U C115U  -2.38
37. A16C A83C U106C C115U U125C  -2.38
38. A18U U112G  -2.46
39. A41U G42C  -2.5
40. A43C G48A  -2.56
41. G60U C97A C123U  -2.62
42. G39A A50U G63C  -2.66
43. C72A C104A A105U G120A  -2.67
44. U9G G61A C97U A100C A108G  -2.88
45. A2U C11U  -2.95
46. A27C G71U  -3
47. U21A G44A G113C  -3.04
48. G39A C70G G120C G122U  -3.09
49. G47C C114U  -3.1
50. G60C A100U C114A  -3.1
51. G42U C62A C73U U112C U130G  -3.26
52. U55C G61C C80A  -3.32
53. A108G C115U  -3.36
54. A41C A46U C70U  -3.44
55. C56U C72G C88A  -3.53
56. C28G G60A  -3.53
57. A2C C40U G60U C62G  -3.56
58. C11A A95U U96A C101G U106C C124A  -3.67
59. A37U U38A G63A  -3.7
60. C3G C49G C72U A91C G128A U130G  -3.78
61. A18G G63C C85U G110U  -3.81
62. C31U G61A  -3.81
63. C13G C64U A83U A95C G110A G120U  -3.89
64. C88U A91U C115G  -3.9
65. C12U C40A C99U  -4.01
66. A27U G48C C124G U126C G128A  -4.06
67. U33A C86U  -4.21
68. C22G C72G U81A  -4.32
69. C22U A26U U54G A118U  -4.35
70. G35C A95G  -4.43
71. G48U C101A U116G U130A  -4.7
72. C40G C72G C115G C123G G128C  -4.8
73. U9G A16U G19U A37G A43U G69U C101A  -4.92
74. A6U C22A C49U  -4.97
75. C4G A6C C8G G48U C72G C76G A95U C124U  -4.99
76. U14C A18G U21C G69U A103C C115U  -5.98
77. G45U G63A C79A A83G  -6.05
78. C102G U106C C114G C123A  -6.08
79. C12G C64A G122A  -6.12
80. C73A G110C U125A U129A  -6.92
81. C20A C72G A95U G113C  -6.92
82. C34G C53G G61C U116C  -7.12
83. G10U U30C U33C G71U C79U C101A C102G A111U  -7.18
84. A2U U9A C11G A24U G36U C56G C123G  -7.43
